These results are taken from patent US20240034757A1 (OXFORD UNIVERSITY INNOVATION, published 2024).

First the molecules themselves.
T1: CCL5_HUMAN (human, UniProt P13501 24-91)
T1 sequence: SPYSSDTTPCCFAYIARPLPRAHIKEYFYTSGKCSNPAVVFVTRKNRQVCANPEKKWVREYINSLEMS

T2: CCL17_HUMAN (human, UniProt Q92583 24-94)
T2 sequence: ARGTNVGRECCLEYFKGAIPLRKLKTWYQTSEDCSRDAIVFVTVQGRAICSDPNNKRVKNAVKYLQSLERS

T3: CCL3_HUMAN (human, UniProt P10147 24-92)
T3 sequence: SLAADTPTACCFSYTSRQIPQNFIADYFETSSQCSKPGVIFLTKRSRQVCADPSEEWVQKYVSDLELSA

T4: CCL21_HUMAN (human, UniProt O00585 24-134)
T4 sequence: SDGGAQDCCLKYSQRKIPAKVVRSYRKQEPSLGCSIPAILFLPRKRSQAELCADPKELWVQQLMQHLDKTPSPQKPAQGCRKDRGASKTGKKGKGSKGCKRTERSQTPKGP

T5: CCL23_HUMAN (human, UniProt P55773 22-120)
T5 sequence: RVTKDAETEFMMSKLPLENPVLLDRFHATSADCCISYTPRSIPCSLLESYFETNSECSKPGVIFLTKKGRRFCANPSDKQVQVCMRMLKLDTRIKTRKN

T6: P467_RHIPU (Rhipicephalus pulchellus, UniProt L7M8Z8 22-127)
T6 sequence: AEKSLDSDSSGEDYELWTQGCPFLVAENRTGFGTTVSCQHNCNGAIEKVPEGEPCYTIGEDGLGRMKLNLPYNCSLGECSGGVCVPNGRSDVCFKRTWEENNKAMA

T7: P546_AMBCA (Amblyomma cajennense, UniProt A0A023FBW7 22-118)
T7 sequence: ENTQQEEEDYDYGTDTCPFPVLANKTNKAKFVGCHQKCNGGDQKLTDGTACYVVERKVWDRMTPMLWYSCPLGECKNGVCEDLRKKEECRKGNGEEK

T8: P1180_AMBTR (Amblyomma triste, UniProt A0A023G6B6 26-116)
T8 sequence: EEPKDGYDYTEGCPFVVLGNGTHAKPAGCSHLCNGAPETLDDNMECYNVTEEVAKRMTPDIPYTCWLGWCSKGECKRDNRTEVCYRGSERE

T9: P1181_AMBMA (Amblyomma maculatum, UniProt G3MIX6 26-115)
T9 sequence: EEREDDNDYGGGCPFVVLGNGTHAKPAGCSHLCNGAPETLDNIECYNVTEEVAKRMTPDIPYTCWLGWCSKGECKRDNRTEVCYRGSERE

T10: P1182_AMBMA (Amblyomma maculatum, UniProt G3MJ83 27-115)
T10 sequence: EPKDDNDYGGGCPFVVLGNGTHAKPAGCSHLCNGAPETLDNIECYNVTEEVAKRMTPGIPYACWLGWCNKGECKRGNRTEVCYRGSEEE

T11: P1183_AMBTR (Amblyomma triste, UniProt A0A023G9N9 26-115)
T11 sequence: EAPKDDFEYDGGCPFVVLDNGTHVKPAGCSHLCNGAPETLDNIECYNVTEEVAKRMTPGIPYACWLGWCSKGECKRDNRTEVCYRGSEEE

T12: P672_RHIPU (Rhipicephalus pulchellus, UniProt L7MC74 22-125)
T12 sequence: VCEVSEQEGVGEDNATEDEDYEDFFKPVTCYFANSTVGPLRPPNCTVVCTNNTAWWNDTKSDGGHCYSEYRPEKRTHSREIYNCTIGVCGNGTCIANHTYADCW

T13: P974_AMBCA (Amblyomma cajennense, UniProt A0A023FDY8 22-118)
T13 sequence: T7 sequence with E8Q, S69E, E88D

T14: P983_AMBCA (Amblyomma cajennense, UniProt A0A023FFB5 22-119)
T14 sequence: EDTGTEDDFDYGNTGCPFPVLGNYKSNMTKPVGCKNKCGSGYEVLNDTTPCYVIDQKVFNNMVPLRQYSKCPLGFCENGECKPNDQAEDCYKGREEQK

T15: P985_AMBPA (Amblyomma parvum, UniProt A0A023FT45 25-132)
T15 sequence: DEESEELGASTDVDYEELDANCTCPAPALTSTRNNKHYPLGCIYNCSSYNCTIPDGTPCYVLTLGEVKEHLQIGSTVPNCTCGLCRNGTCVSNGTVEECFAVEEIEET

T16: P991_AMBCA (Amblyomma cajennense, UniProt A0A023FFD0 29-136)
T16 sequence: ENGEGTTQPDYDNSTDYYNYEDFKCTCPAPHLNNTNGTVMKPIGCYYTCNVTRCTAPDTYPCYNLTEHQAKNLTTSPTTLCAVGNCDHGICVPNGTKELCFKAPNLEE

T17: EVA1_RHISA (Rhipicephalus sanguineus, UniProt P0C8E7 21-114)
T17 construct: also called Evasin-1
T17 sequence: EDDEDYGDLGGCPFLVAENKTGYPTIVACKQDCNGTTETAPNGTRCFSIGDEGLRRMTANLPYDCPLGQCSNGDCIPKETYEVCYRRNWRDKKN

T18: P1156_IXORI (Ixodes ricinus, UniProt V5HBW0 29-108)
T18 sequence: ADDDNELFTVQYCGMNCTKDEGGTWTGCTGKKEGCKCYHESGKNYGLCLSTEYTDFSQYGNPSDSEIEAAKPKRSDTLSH

T19: P1095_IXORI (Ixodes ricinus, UniProt A0A0K8RCE3 24-112)
T19 sequence: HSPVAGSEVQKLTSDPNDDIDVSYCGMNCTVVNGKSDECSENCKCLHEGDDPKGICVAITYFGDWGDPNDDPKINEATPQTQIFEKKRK

T20: P1096_IXORI (Ixodes ricinus, UniProt A0A0K8RKE4 24-114)
T20 sequence: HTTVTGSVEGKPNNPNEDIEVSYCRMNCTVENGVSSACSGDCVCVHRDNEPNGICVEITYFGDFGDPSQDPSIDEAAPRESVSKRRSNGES

T21: P1127_IXORI (Ixodes ricinus, UniProt A0A0K8RJ67 29-108)
T21 sequence: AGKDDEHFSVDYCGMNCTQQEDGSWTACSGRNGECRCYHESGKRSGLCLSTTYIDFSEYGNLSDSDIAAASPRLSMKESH

T22: P1132_IXORI (Ixodes ricinus, UniProt V5GZ08 29-106)
T22 sequence: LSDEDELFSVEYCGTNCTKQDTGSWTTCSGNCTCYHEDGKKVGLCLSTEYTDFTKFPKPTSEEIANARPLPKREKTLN

T23: P1134_IXORI (Ixodes ricinus, UniProt A0A0K8RAI0 32-135)
T23 sequence: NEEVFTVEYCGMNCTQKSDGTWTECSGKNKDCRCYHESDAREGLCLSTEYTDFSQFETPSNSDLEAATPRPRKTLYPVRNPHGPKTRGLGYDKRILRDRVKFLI

T24: P1166_IXORI (Ixodes ricinus, UniProt A0A0K8RE99 25-110)
T24 sequence: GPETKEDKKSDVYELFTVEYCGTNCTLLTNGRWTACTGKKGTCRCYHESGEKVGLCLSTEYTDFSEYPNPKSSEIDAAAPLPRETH

T25: P1168_IXORI (Ixodes ricinus, UniProt A0A0K8RCU3 25-106)
T25 sequence: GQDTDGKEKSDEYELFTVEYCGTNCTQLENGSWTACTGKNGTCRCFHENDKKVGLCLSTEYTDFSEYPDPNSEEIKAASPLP

T26: P1170_IXORI (Ixodes ricinus, UniProt A0A0K8RD51 29-102)
T26 sequence: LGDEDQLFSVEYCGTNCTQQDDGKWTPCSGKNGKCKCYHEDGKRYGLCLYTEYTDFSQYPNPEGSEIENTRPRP

T27: P1174_IXORI (Ixodes ricinus, UniProt V5I3C5 28-104)
T27 sequence: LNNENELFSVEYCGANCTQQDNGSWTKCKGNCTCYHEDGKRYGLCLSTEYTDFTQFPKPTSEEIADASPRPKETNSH

T28: P1229_IXORI (Ixodes ricinus, UniProt A0A0K8R4R9 32-108)
T28 sequence: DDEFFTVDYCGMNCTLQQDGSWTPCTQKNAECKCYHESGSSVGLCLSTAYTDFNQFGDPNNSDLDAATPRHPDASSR

B1: P1030_AMBPA (other)
chain: GPPSIPGNESIPGCGDAGTTTAPEDNPKHYGTLTDKKGCTLPIIGTWMTAVDHQHLQGTRGERRGPTGKVNLPASCRKNCHGRQEILRDGIPCRKVVGNPKGSKKHLKSGCLRGKCLAGQCVNDGRRISCYVPRNITDTEPTPGLLAE
B2: P1243_AMBAM (other)
chain: RNHTEDNSTEYYDYEEARCACPARHLNNTNGTVLKLLGCHYFCNGTLCTAPDGYPCYNLTAQQVRTLTTYPNTSCAVGVCMKGTCVKNGTMEQCFKTP
B3: CCL8_HUMAN (ligand, UniProt P80075 24-99, looked up)
chain: QPDSVSIPITCCFNVINRKIPIQRLESYTRITNIQCPKEAVIFKTKRGKEVCADPKERWVRDSMKHLDQIFQNLKP
B4: CXCL11_HUMAN (ligand)
chain: FPMFKRGRCLCIGPGVKAVKVADIEKASIMYPSNNCDKIEVIITLKENKGQRCLNPKSKQARLIIKKVERKNF

Test [1] addresses T1, CCL5_HUMAN. As to the kind of experiment: yeast surface display FACS.
In the test “CCL8_HUMAN” the target is B3. In words: yeast surface display FACS.
The target in a further test is CCL11_HUMAN (human, UniProt P51671 24-97). In words: yeast surface display FACS.
Another test deals with T2, CCL17_HUMAN. In words: yeast surface display FACS.
The next test addresses CCL20_HUMAN (human, UniProt P78556 27-96). In words: yeast surface display FACS.
In another test the target is CXCL12_HUMAN (human, UniProt P48061 22-89). In words: yeast surface display FACS.
The target of a further test is T3, CCL3_HUMAN. As to the kind of experiment: yeast surface display FACS.
Test [2] deals with T4, CCL21_HUMAN. In words: BLI.
For test [3], the target named is T5, CCL23_HUMAN. As to the kind of experiment: BLI.
Test [4] deals with T4, CCL21_HUMAN. As to the kind of experiment: BLI. The source holds these as a separate data set.
The target of test [5] is T5, CCL23_HUMAN. In words: BLI. This is another data set of the same source.
In test [6] the target is T1, CCL5_HUMAN. In words: cell-based or functional assay.
In another test the target is T6, P467_RHIPU. In words: BLI.
For another test, the target named is T7, P546_AMBCA. As to the kind of experiment: BLI.
The target in another test is T8, P1180_AMBTR. In words: BLI.
A further test concerns the target T9, P1181_AMBMA. As to the kind of experiment: BLI.
Another test addresses T10, P1182_AMBMA. In words: BLI.
For the next test, the target named is T11, P1183_AMBTR. As to the kind of experiment: BLI.
The target in the test “P1243_AMBAM” is B2. In words: BLI.
The next test deals with T12, P672_RHIPU. As to the kind of experiment: BLI.
For another test, the target named is T13, P974_AMBCA. As to the kind of experiment: BLI.
The target in a further test is T14, P983_AMBCA. In words: BLI.
A further test deals with T15, P985_AMBPA. As to the kind of experiment: BLI.
The next test concerns the target T16, P991_AMBCA. In words: BLI.
Another test deals with T17, EVA1_RHISA. In words: BLI.
The target of the next test is T18, P1156_IXORI. As to the kind of experiment: BLI.
In a further test the target is T19, P1095_IXORI. As to the kind of experiment: BLI.
The target of the next test is T20, P1096_IXORI. As to the kind of experiment: BLI.
The next test deals with T21, P1127_IXORI. As to the kind of experiment: BLI.
The target in a further test is T22, P1132_IXORI. As to the kind of experiment: BLI.
The target in another test is T23, P1134_IXORI. In words: BLI.
A further test has as its target T24, P1166_IXORI. In words: BLI.
Another test has as its target T25, P1168_IXORI. In words: BLI.
For another test, the target named is T26, P1170_IXORI. As to the kind of experiment: BLI.
In a further test the target is T27, P1174_IXORI. In words: BLI.
Another test concerns the target T28, P1229_IXORI. As to the kind of experiment: BLI.

Where a chain is given by its changes, count along the chain named. Read-outs that look alike come from different tables or passages of the source.

Chain of CCL11_HUMAN (P51671 24-97 limits assumed): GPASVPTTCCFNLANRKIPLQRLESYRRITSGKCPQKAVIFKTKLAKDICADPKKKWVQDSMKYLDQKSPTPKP
Chain of CXCL12_HUMAN (P48061 22-89 limits assumed): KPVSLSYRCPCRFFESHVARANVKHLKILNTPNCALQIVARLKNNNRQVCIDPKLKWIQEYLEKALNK
Chain of CCL20_HUMAN (P78556 27-96 limits assumed): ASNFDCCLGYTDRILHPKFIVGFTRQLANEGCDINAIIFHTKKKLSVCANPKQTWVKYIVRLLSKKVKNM

Turning to B1, the binding result with CCL5_HUMAN [1], with CCL8_HUMAN, in the test with CCL11_HUMAN, in the test with CCL17_HUMAN, in the test with CCL20_HUMAN and with CXCL12_HUMAN was “binds” in each case. Also, in the test with CCL3_HUMAN, the binding result was “binds”.
With B2, the Kd with CCL21_HUMAN [2] was determined as 6.54 nM; in the test with CCL23_HUMAN [3], 6.62 nM; in the test with CCL21_HUMAN [4], 6.54 nM; with CCL23_HUMAN [5], 6.62 nM. The “IC50, THP1 cell migration” value with CCL5_HUMAN [6] was found to be 7.87 nM.
On to B3, for which the Kd was 2.85 nM with P467_RHIPU; 1.3 nM with P546_AMBCA; 3.6 nM in the test with P1180_AMBTR; 14 nM with P1181_AMBMA; 29 nM with P1182_AMBMA; 1100 nM with P1183_AMBTR. For the same molecule, the Kd with P1243_AMBAM worked out at 21.9 nM; with P672_RHIPU, 3.7 nM; in the test with P974_AMBCA, 2.58 nM; with P983_AMBCA, 7 nM; in the test with P985_AMBPA, 6.5 nM; with P991_AMBCA, 8.79 nM. Also, in the test with EVA1_RHISA, the binding result is listed as “no binding (tested: 600 nM)”.
Turning to B4, the binding result with P1156_IXORI, with P1095_IXORI, in the test with P1096_IXORI, in the test with P1127_IXORI, with P1132_IXORI and with P1134_IXORI was “no binding (tested: 300 nM)” in each case. Further, the binding result with P1166_IXORI, with P1168_IXORI, in the test with P1170_IXORI, with P1174_IXORI and in the test with P1229_IXORI was “no binding (tested: 300 nM)” each time.
